The text below walks through data of patent US20240084003A1 (SIMCERE ZAIMING PHARMACEUTICAL, published 2024).

Numbering of substitutions follows the chain as printed.

To fix the notation:
T1: monkey CD22 protein (ACROBiosystems, catalog number SI2-R52Ha) (monkey, UniProt F6W485 20-688)
T1 construct: commercial protein; also called monkey CD22-ECD; monkey CD22-ECD-His
T1 sequence: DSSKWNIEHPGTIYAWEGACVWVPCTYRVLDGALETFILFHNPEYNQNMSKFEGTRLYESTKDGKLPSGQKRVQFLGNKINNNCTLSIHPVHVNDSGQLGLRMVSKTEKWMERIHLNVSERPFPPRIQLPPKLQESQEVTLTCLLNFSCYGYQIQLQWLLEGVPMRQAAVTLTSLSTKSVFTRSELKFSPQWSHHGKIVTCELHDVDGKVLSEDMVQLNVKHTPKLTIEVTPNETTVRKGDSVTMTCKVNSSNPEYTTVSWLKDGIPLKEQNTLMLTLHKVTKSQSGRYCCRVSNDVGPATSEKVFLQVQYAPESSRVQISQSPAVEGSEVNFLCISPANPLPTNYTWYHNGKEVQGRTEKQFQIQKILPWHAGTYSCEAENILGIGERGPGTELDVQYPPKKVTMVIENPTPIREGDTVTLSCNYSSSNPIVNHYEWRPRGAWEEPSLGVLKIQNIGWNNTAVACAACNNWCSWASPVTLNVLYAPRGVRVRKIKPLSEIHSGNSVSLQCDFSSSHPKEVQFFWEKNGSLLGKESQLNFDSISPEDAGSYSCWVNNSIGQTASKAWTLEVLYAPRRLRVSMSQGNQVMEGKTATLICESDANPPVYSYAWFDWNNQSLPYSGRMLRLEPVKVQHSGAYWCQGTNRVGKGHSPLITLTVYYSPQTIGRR

B1: F2.121.9 (antibody, human IgG1, lambda, V domains shown)
VH: EVQLVESGGGLVKPGGSLKLSCAASGFTFSDYVMSWIRQTPEKRLEWVATISDAGSYTFYPDNLKGRFTISRDNAKNNLYLQMNHLTSEDTAFYYCAIIYFGNYGGYWGQGTLVTVSV
VL: QAVVTQESALTTSPGGTVVLTCRSNTGAVTTSNYANWVQEKPDHLFTGLIGGTSNRAPGVPVRFSGSLIGDKAALTITGAQTEDDAMYFCALWYSTHWVFGGGTKLTVLG
notes: human-murine chimeric IgG1 lambda
B2: F2.343.16 (antibody, human IgG1, lambda, V domains shown)
VH: QVQLKQSGPGLVQPSQSLSITCTVSGFSLTGYGVQWVRQSPGKGLEWLGVIWGGGGTDYNAAFISRLNIIKDNSKSQVFFKMNSLQADDTAIYYCARYSKYGHFDVWGTGTAVTVSS
VL: QAVVTQESALTTSPGETVTLTCRSSTGAVTTSNYANWVQEKPDHLFTGLIGGTYNRVPGVPARFSGSLIGDKAALTITGAQTEDEAIYFCALWYSNHFWVFGGGTKLTVLG
notes: human-murine chimeric IgG1 lambda; VL name legible
B3: F1.257.3 (antibody, human IgG1, kappa, V domains shown)
VH: QVQLQQSGPELARPGASVKLSCKASGYTFTSYGISWVKQRTGQDLEWIGEIYPKLGTTYYNEKFKDKATLTTDRSSSTAYMALRSLTSEDSAVYFCACPHYYATRGGDYWGQGTTLTVSS
VL: EIVLTQSPATLSVTPGDSVTFSCRASQSISNHLHWYQQKSHESPRLLIRYASQSISGIPSRFSGSGSGTDFTLSLSSVETEDFGVYFCQQSHSWPYTFGGGTKLEIAR
notes: human-murine chimeric IgG1 kappa; VL name legible
B4: F2.70.2 (antibody, human IgG1, lambda, V domains shown)
VH: EVQLVESGGGLVKPGGSLKLSCAASGFTFSDYGMNWFRQAPEKGLEWVAYISRGSHTIYYADTVKGRFTISRDNAKNTLFLQMTSLRSNDTAMYYCVRMAGYYAMDYWGQGTSVTVSS
VL: QLVLTQSSSASFSLGASAKLTCTLSSQHSSYIIEWYQQQPLKPPKYVMELKKDGSHSTGDGIPDRFSGSSSGADRYLSISNIQPEDEAIYICGVGDTIKEQFVYVFGGGTKVTVLG
notes: as for B1
B5: F2.180.16 (antibody, human IgG1, lambda, V domains shown)
VH: EVKLVESGGGLVLPGGSLKISCAASGFTFSDYYMYWIRQTPDKRLEWVAYISNTGYSTFYPDSVKGRFTVSRDNAKNTLYLQMSRLQSEDTAMYYCARHGILYAMDYWGQGTSVTVSS
VL: B4 VL with L2P, H28Y, S30T, I32T, E34G, K52H, H56R, S57H, I89T, V103M
notes: as for B1
B6: F2.173.9 (antibody, human IgG1, lambda, V domains shown)
VH: EVQLVESGGDLVKPGESLKLSCEASGFTFSNYAMSWVRQTPDRRLEWVATISSIGSFTYYSDSVKGRFTISRDNVKSTLHLQMNNLKSGDTAIYFCARLGVYFDSWGQGTTLTVSS
VL: B4 VL with S30T, I32T, L41H, Y46F, L50I, S57Y, A88T, G95S, T97M, E100D
notes: as for B1
B7: F2.104.10 (antibody, human IgG1, lambda, V domains shown)
VH: B4 VH with L11F, K76E, V114L
VL: B4 VL with L50V, P84S
notes: as for B1
B8: F1.62.10 (antibody, human IgG1, kappa, V domains shown)
VH: QVQLQQSGPELVKPGASVKISCKASGYEFSSIWMNWVKQRPGEGLEWIGRIFPGDGEINYNEKFKGKATLTADRSSTTAYMQLSSLTSEDSAVYFCAGWRIYYGTYGAMDYWGQGTSVTVSS
VL: DIQMTQITSSLSASLGDRVTISCRASQDIGNYLNWYQQKPDGTVKLLIYYTSRLHSGVPSRFSGSGSRTDYSLTISNLQQEDIATYFCQQGNTLPWTFGGGTKLEIKR
notes: human-murine chimeric IgG1 kappa

One assay deals with T1, monkey CD22 protein (ACROBiosystems, …). Put plainly: ELISA, coated monkey CD22 protein, antibody 0.1 nM. The method in brief: (§1)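 Coat 2 μg/mL CD22 in PBS, overnight 4° C; block PBS/2% BSA 2 h RT. Ab 2 h 37° C; HRP anti-species secondary 2 h 37° C. TMB 30 min RT, stop 1.0 N HCl.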
B1 came in with an OD450 of 0.34 OD450.
Molecule B2 gave an OD450 of 0.05 OD450.
Molecule B3 yielded an OD450 of 0.06 OD450.
In turn, B4 yielded an OD450 of 0.06 OD450.
The same measure, in the same setting: the same measure for B5: 0.05 OD450; for B6: 1.25 OD450; for B7: 0.05 OD450.
The same measure, in the same setting: the same measure for B8: 0.07 OD450.

A further assay has the same target. Put plainly: ELISA, coated monkey CD22 protein, antibody 0.00001 nM. In short, it runs like this:
as §1
A general note: An ELISA detects its analyte on a solid surface through an enzyme-linked reagent.
In the case of B1, the OD450 was found to be 0.05 OD450.
Same read-out and setting: the figure for B2 is 0.05 OD450.
In the case of B3, the OD450 stood at 0.06 OD450.
For the molecule B4, the OD450 is 0.06 OD450.
The molecule B5 yielded an OD450 of 0.05 OD450.
On the same count and under the same terms, the same measure for B6: 0.06 OD450; for B7: 0.05 OD450; for B8: 0.06 OD450.

A further assay addresses T2, CD22 on cynomolgus monkey peripheral blood B cells (cynomolgus monkey (Macaca fascicularis)).
T2 construct: whole, on cells; also called cynomolgus monkey B cells
Put plainly: FACS, cynomolgus PBMC, CD20+ B cells, antibody 10 nM. In short, it runs like this: (§2)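 Fresh cynomolgus PBMC isolated on Ficoll were co-incubated with chimeric antibody and anti-human CD20 (monkey cross-reactive, BV605) for 1 h at room temperature, then APC anti-human IgG Fc for 30 min in the dark. By flow cytometry, value is the percentage of antibody-positive cells within gated CD20+ B cells.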
In general terms: Flow cytometry measures light scatter and fluorescence of single cells or particles in a stream.
For B1, the “Proportion of chimeric antibody positive cells to B cells (%)” value (“Proportion … (%)” for short) was 56%.
On the same count and under the same terms, the figure for B2 is 21%; for B3 it is 20%.
Consider B4, for which the “Proportion … (%)” value is 20%.
For B5, the “Proportion … (%)” value turned out to be 20%.
On the same count and under the same terms, the same measure for B6: 43%.
For the molecule B7, the “Proportion … (%)” value worked out at 21%.
The same measure, in the same setting: the same measure for B8: 19%.

The next assay has as its target T1, monkey CD22 protein (ACROBiosystems, …). Put plainly: ELISA, coated monkey CD22 protein, antibody 0.01 nM. The method in brief:
as §1
For the molecule B1, the OD450 came to 0.13 OD450.
On the same count and under the same terms, the figure for B2 is 0.05 OD450.
The same measure, in the same setting: the figure for B3 is 0.05 OD450; for B4 it is 0.06 OD450.
On the same count and under the same terms, the same measure for B5: 0.05 OD450.
For the molecule B6, the OD450 came to 0.38 OD450.
B7 registered an OD450 of 0.06 OD450.
On the same count and under the same terms, the same measure for B8: 0.05 OD450.

The target is the same in the next assay. Put plainly: ELISA, coated monkey CD22 protein, antibody 0.0001 nM. In short, it runs like this:
as §1
For B1, the OD450 was 0.05 OD450.
Same read-out and setting: the figure for B2 is 0.05 OD450; for B3 it is 0.06 OD450.
B4 came in with an OD450 of 0.06 OD450.
In turn, B5 yielded an OD450 of 0.05 OD450.
The same measure, in the same setting: the same measure for B6: 0.06 OD450; for B7: 0.05 OD450.
Still for that read-out and setting: the figure for B8 is 0.06 OD450.

The target of another assay is T2, CD22 on cynomolgus monkey peripheral …. Put plainly: FACS, cynomolgus PBMC, CD20+ B cells, antibody 100 nM. The method in brief: as §2
Take B1: the “Proportion … (%)” value turned out to be 64%.
Turning to B2, the “Proportion … (%)” value was determined as 22%.
Still for that read-out and setting: the figure for B3 is 34%.
Same read-out and setting: the same measure for B4: 34%; for B5: 23%.
Take B6: the “Proportion … (%)” value stood at 71%.
B7: the “Proportion … (%)” value came out at 26%.
Turning to B8, the “Proportion … (%)” value worked out at 24%.

The target in a further assay is T1, monkey CD22 protein (ACROBiosystems, …). Put plainly: ELISA, coated monkey CD22 protein, antibody 10 nM. The method in brief:
as §1
With B1, the OD450 was determined as 0.56 OD450.
As for B2, the OD450 stood at 0.06 OD450.
The molecule B3 yielded an OD450 of 0.07 OD450.
For the molecule B4, the OD450 stood at 0.08 OD450.
Same read-out and setting: the figure for B5 is 0.06 OD450; for B6 it is 1.12 OD450.
Same read-out and setting: the same measure for B7: 0.07 OD450; for B8: 0.18 OD450.

The next assay has the same target. Put plainly: ELISA, coated monkey CD22 protein, antibody 0.001 nM. The method in brief:
as §1
With B1, the OD450 was 0.06 OD450.
Same read-out and setting: the same measure for B2: 0.05 OD450; for B3: 0.05 OD450.
As to B4, the OD450 stood at 0.07 OD450.
The same measure, in the same setting: the figure for B5 is 0.05 OD450.
Regarding B6, the OD450 was 0.12 OD450.
As for B7, the OD450 is 0.05 OD450.
Same read-out and setting: the same measure for B8: 0.05 OD450.

Another assay concerns the target T2, CD22 on cynomolgus monkey peripheral …. Put plainly: FACS, cynomolgus PBMC, CD20+ B cells, antibody 1 nM. The method in brief: as §2
B1: the “Proportion … (%)” value amounted to 27%.
The same measure, in the same setting: the same measure for B2: 21%.
Turning to B3, the “Proportion … (%)” value worked out at 17%.
On to B4, for which the “Proportion … (%)” value turned out to be 20%.
B5: the “Proportion … (%)” value was determined as 16%.
As for B6, the “Proportion … (%)” value worked out at 19%.
Turning to B7, the “Proportion … (%)” value came out at 19%.
Turning to B8, the “Proportion … (%)” value was 17%.

The target in another assay is T1, monkey CD22 protein (ACROBiosystems, …). Put plainly: ELISA, coated monkey CD22 protein, antibody 100 nM. In short, it runs like this:
as §1
Take B1: the OD450 was found to be 0.72 OD450.
Still for that read-out and setting: the figure for B2 is 0.08 OD450.
On the same count and under the same terms, the same measure for B3: 0.18 OD450; for B4: 0.11 OD450; for B5: 0.06 OD450.
For the molecule B6, the OD450 is 1.18 OD450.
Still for that read-out and setting: the figure for B7 is 0.07 OD450.
For B8, the OD450 turned out to be 0.36 OD450.
